# In patent US20230340137A1, “METHODS, THERAPIES AND USES FOR TREATING CANCER” (PFIZER INC., priority 2020, published 2023):
# Legend:
# Assay in all cases: BCMAxCD3 mediated cell killing with human T cells, with or without GSI (luciferase viability)
# Assay type in all cases: cell-based
# Conditions in all cases: with or without 1 μM GSI, 60 hours
# [1] = tested on: OPM2-luc cells
# Procedure: (§1) CD3^+ T cells from PBMCs (Stem Cell Technologies) were negatively selected using EasySep Human T cell enrichment kit (Stem Cell Technologies). Multiple myeloma cells expressing luciferase (MM.1S-luc, OPM2-luc, H929-luc, Molp8-luc, RPMI8226-luc) were treated with 1 μM GSI […]. After 24 hours, cells were seeded with 50,000 CD3^+ pan T cells in a clear 96-well V-bottom plate. Cells were further treated with a range of BCMAxCD3 bispecific antibody concentrations with or without 1 μM GSI. 60 hours after treatment, luciferase activity in treated cells was analyzed using NeoLite reagent kit (Perkin Elmer) and acquired on VictorX multimode plate reader (Perkin Elmer). Cell viability was calculated by dividing luciferase activity of treated cells over luciferase activity of untreated control (no BCMAxCD3 bispecific antibody added).
# [2] = tested on: RPMI8226-luc cells
# Procedure: as §1
# [3] = tested on: MM.1S-luc cells
# Procedure: as §1
# [4] = tested on: Molp8-luc cells
# Procedure: as §1
# [5] = tested on: H929-luc cells
# Procedure: as §1
substance,measurement,setting,value
"PF-06863135: heterodimeric humanized full-length bispecific antibody, one BCMA binding arm and one CD3 binding arm, modified human IgG2Δa Fc",OPM2 cell viability,[1]; BCMA × CD3 0.00064 nM,83.8 ± 3.4 % control
same,OPM2 cell viability,[1]; BCMA × CD3 0.0032 nM,84.3 ± 3.1 % control
same,OPM2 cell viability,[1]; BCMA × CD3 0.016 nM,68.4 ± 2.4 % control
same,OPM2 cell viability,[1]; BCMA × CD3 0.08 nM,43.6 ± 6.4 % control
same,OPM2 cell viability,[1]; BCMA × CD3 0.4 nM,3.1 ± 0.8 % control
same,OPM2 cell viability,[1]; BCMA × CD3 2 nM,2.8 ± 0.8 % control
same,OPM2 cell viability,[1]; BCMA × CD3 10 nM,2 ± 0.2 % control
same,OPM2 cell viability,[1]; BCMA × CD3 50 nM,3.3 ± 0.3 % control
same,RPMI8226 cell viability,[2]; BCMA × CD3 0.00064 nM,113.2 ± 10.6 % control
same,RPMI8226 cell viability,[2]; BCMA × CD3 0.0032 nM,130.5 ± 19.5 % control
same,RPMI8226 cell viability,[2]; BCMA × CD3 0.016 nM,113.4 ± 1.3 % control
same,RPMI8226 cell viability,[2]; BCMA × CD3 0.08 nM,54.2 ± 16.9 % control
same,RPMI8226 cell viability,[2]; BCMA × CD3 0.4 nM,28.7 ± 13.6 % control
same,RPMI8226 cell viability,[2]; BCMA × CD3 2 nM,25.7 ± 5.5 % control
same,RPMI8226 cell viability,[2]; BCMA × CD3 10 nM,19.9 ± 1.1 % control
same,RPMI8226 cell viability,[2]; BCMA × CD3 50 nM,19.4 ± 5^ % control
same,MM.1S cell viability,[3]; BCMAxCD3 0.00001 nM,80.6 ± 3.9 % control
same,MM.1S cell viability,[3]; BCMAxCD3 0.00005 nM,79.8 ± 2.9 % control
same,MM.1S cell viability,[3]; BCMAxCD3 0.00026 nM,78 ± 0.9 % control
same,MM.1S cell viability,[3]; BCMAxCD3 0.00128 nM,87.7 ± 4.4 % control
same,MM.1S cell viability,[3]; BCMAxCD3 0.0064 nM,108 ± 4.5 % control
same,MM.1S cell viability,[3]; BCMAxCD3 0.032 nM,2.5 ± 0.3 % control
same,MM.1S cell viability,[3]; BCMAxCD3 0.16 nM,1.7 ± 0.8 % control
same,MM.1S cell viability,[3]; BCMAxCD3 0.8 nM,2.4 ± 0.5 % control
same,MM.1S cell viability,[3]; BCMAxCD3 4 nM,1.3 ± 0.8 % control
same,Molp8 cell viability,[4]; BCMAxCD3 0.00001 nM,64 ± 11.6 % control
same,Molp8 cell viability,[4]; BCMAxCD3 0.00005 nM,59.1 ± 4.6 % control
same,Molp8 cell viability,[4]; BCMAxCD3 0.00026 nM,58.5 ± 0.6 % control
same,Molp8 cell viability,[4]; BCMAxCD3 0.00128 nM,66.7 ± 0.3 % control
same,Molp8 cell viability,[4]; BCMAxCD3 0.0064 nM,55.2 ± 1.3 % control
same,Molp8 cell viability,[4]; BCMAxCD3 0.032 nM,66.1 ± 4.9 % control
same,Molp8 cell viability,[4]; BCMAxCD3 0.16 nM,8 ± 2 % control
same,Molp8 cell viability,[4]; BCMAxCD3 0.8 nM,6.1 ± 0.7 % control
same,Molp8 cell viability,[4]; BCMAxCD3 4 nM,5.2 ± 0.3 % control
same,H929 cell viability,[5]; BCMAxCD3 0.00001 nM,80.2 ± 0.3 % control
same,H929 cell viability,[5]; BCMAxCD3 0.00005 nM,81.1 ± 0.2 % control
same,H929 cell viability,[5]; BCMAxCD3 0.00026 nM,79 ± 0.8 % control
same,H929 cell viability,[5]; BCMAxCD3 0.00128 nM,77.8 ± 3.3 % control
same,H929 cell viability,[5]; BCMAxCD3 0.0064 nM,81.2 ± 3 % control
same,H929 cell viability,[5]; BCMAxCD3 0.032 nM,98.6 ± 1.2 % control
same,H929 cell viability,[5]; BCMAxCD3 0.16 nM,23.2 ± 7.2 % control
same,H929 cell viability,[5]; BCMAxCD3 0.8 nM,11.3 ± 1.5 % control
same,H929 cell viability,[5]; BCMAxCD3 4 nM,8.6 ± 3 % control
